The DeepSol protein solubility set

experiment: soluble on expression in E. coli; label from the status in PepcDB or PDB records

Sequence	soluble on expression in E. coli
TVEKSVVFKAEGEHFTDQKGNTIVGSGSGGTTKYFRIPAMCTTSKGTIVVFADARHNTASDQSFIDTAAARSTDGGKTWNKKIAIYNDRVNSKLSRVMDPTCIVANIQGRETILVMVGKWNNNDKTWGAYRDKAPDTDWDLVLYKSTDDGVTFSKVETNIHDIVTKNGTISAMLGGVGSGLQLNDGKLVFPVQMVRTKNITTVLNTSFIYSTDGITWSLPSGYCEGFGSENNIIEFNASLVNNIRNSGLRRSFETKDFGKTWTEFPPMDKKVDNRNHGVQGSTITIPSGNKLVAAHSSAQNKNNDYTRSDISLYAHNLYSGEVKLIDDFYPKVGNASGAGYSCLSYRKNVDKETLYVVYEANGSIEFQDLSRHLPVIKSYN	soluble
TVLPKDIPGDSLKVTVGTANGKPGDTVTVPVTFADVAKMKNVGTCNFYLGYDASLLEVVSVDAGPIVKNAAVNFSSSASNGTISFLFLDNTITDELITADGVFANIKFKLKSVTAKTTTPVTFKDGGAFGDGTMSKIASVTKTNGSVTIDP	soluble
VAGDTTITIVGNLTADPELRFTPSGAAVANFTVASTPRIYDRQTGEWKDGEALFLRCNIWREAAENVAESLTRGARVIVSGRLKQRSFETREGEKRTVIEVEVDEIGPSLRYATAKVNKASRSGGFGSGSRPAPAQTSSASGDDPWGSAPASGSFGGGDDEPPF	soluble
VATLNESIEAGLEPGAVALILEAFPIEDRVRLWRALPLELHIDVLTEMRADVRFSIINALSEVELKLTLAKLDNLSLIEWADSLPESIINEALALIEKDELELYDQANEYEDDELGRWAERKIITLPFNITVGTAKQLMERYSYDTPQQVYLINRNKQFRGAVNYYEILRSDSGVRLKTLEIETVTVLDSKMTLPEAVEALEHSALPALPVTDADQTLIGEVDWQFALSTQREIYEARLMAGTGMDEGDDLFAPVLKSSQKRGV	not soluble
VAVVLDRQGKVQTVNGLFETELSYSQSEIAGRSLSEMSPPELSGDTHQKRALAAIRDGKHFSGTLRLVSKTGARVWLRTVVVPFKNETGGIEQITLYSSVLT	not soluble
VDKIYVIEENDPFIEEQIKAYGIDCIGKDVIPPYGEMTPDVLRKAIFGKTNDTIEYKSELVTPRPPSFCAGCPHRGFFYELGKRKNLIVGGDIGCYTLGFAPPYNGIDYVVCMGSAFGTAHGAQKVLNMKDDNEKRLVGVLGDSTFFHTGINGLLDVVYNRGNSISVILDNRITGMTGHQENPGSGYTLQGAKTKEVDIEGLVKACGIEHVRVINPNNLKEVNEALDWALAIEDEPSVIIT	not soluble
VDYSRTETLQFEDDEYYYYVKAVPKVGVTLPEKQVKHITEPHEEQPKEAKAAVNLKPEPMVQETVAIDTSQIQEADLEKNVDELLLTQSLNEELRQNQNEPEDDLSLTKSLGDLWTKKPGSGE	not soluble
VETASLDVYAKYVLRSICQQEWVGERCLKSLCEDSNDLQDPVLSSAQAQRLMQLICYPHRLLDNEDGENPQRQRIKRILQNLDQWTMRQSSLELQLMIKQTPNNEMNSLLENIAKATIEVFQRSAETGSSSGSTASNMPSSSKTKPVLSSLERSGVWLVAPLIAKLPTSVQGHVLKAAGEELEKGQHLGSSSRKERDRQKQKSMSLLSQQPFLSLVLTCLKGQDEQREGLLTSLYSQVHQIVN	not soluble
VFNSDAPLETTIKGMKTVMLGYDCRMSQQSPAYLERIVKDVKKYKKEDTLVIVNMHWGVEYRETPTNYQTQFGHAILDAGADIIMGAHPHRLESIEKYKDKYIVYSMGDFAFGADPTLLSRMTSMFQLRFTKEA	not soluble
VIGADVPRDSQRARVYAAEAFVRTLFDRVTAHGSPTVEFFGTQLTLPPEGRFGSVASVQRYVDDVLALPAVGQNWPTVSPVRVRARRAATAAHYENHGGTGTIAVPDRHTAGWAMRELVVLHEVAHHLCQVPPPHGPEFVATVCTLTELVMGPEVGHVFRVVYAQEGVR	soluble
VLTCNEAFARMRGQSVKEIEGSSIVSLYAPEDQQMVKDKLKITDSTGFCSCQAKMMRKDGTIFPVQIDVVGLKDENGQIMYRIVTVQDSTER	not soluble
VPPPGTMVMVERKVGSWVDGQPIDLQRDWRSWEQLPDSLKVAVIAGEDQHFAEHHGFDLPAIQQALAHNERGGSIRGASTLSQQVAKNVFLWSGRSWLRKGLEAWFTLLIETLWTKQRILEVYLNSAEWGPGVFGAQAAARYHFGLDAERLSRTQASQLAAVLPSPLKWSAARPGPYVRQRAAWIRQQMWQLGGDDYLLRLER	not soluble
VRQLLGLEGPIKRVECFDISHTMGEATVASCVVFDAVGPVRSQYRRYNITGITPGDDYAAMRQAIERRFRRAVEEDKQGERPDVLFIDGGAGQLAQAKMALNAVGVESVLLVGVSKGEERRAGHETLIMLDGQELHPGAASPALQFIQQVRDEAHRFAI	not soluble
VRWIGLSTGLVSAMLVAGLVACGSNSPASSPAGPTQGARSIVVFAAASLQSAFTQIGEQFKAGNPGVNVNFAFAGSSELATQLTQGATADVFASADTAQMDSVAKAGLLAGHPTNFATNTMVIVAAAGNPKKIRSFADLTRPGLNVVVCQPSVPCGSATRRIEDATGIHLNPVSEELSVTDVLNKVITGQADAGLVYVSDALSVATKVTCVRFPEAAGVVNVYAIAVLKRTSQPALARQFVAMVTAAAGRRILDQSGFAKP	not soluble
VSAASLSKSAPAEPQPGPPQPAAGPQALPAIGGLTPFSSVDWPGQLAAVVFIAGCPWRCHYCHNPHLQERARGLDWREVLDFLGRRRNLLDAVVFSGGEPLSEPRLPQLIDAARALGLRIGLHTGGIYPARFAEVLPRLDWVGLDIKTTAPRYDALTGRRGSAAPVDACLDLLLRSHCAFECRTTWHPDWLPEPQLLALAQSLCSRGVKHYAIQAYRSAPGTLATALPSEATQHALAACFSSFSCR	soluble
VSDGEQAKSRRRRGRRRGRRAAATAENHMDAQPAGDATPTPATAKRSRSRSPRRGSTRMRTVHETSAGGLVIDGIDGPRDAQVAALIGRVDRRGRLLWSLPKGHIELGETAEQTAIREVAEETGIRGSVLAALGRIDYWFVTDGRRVHKTVHHYLMRFLGGELSDEDLEVAEVAWVPIRELPSRLAYADERRLAEVADELIDKLQSDGPAALPPLPPSSPRRRPQTHSRARHADDSAPGQHNGPGPGP	not soluble
VSVGTHPTFENSPSGTVLTSPPDGSAVDRATDAARRVVDALLRTDRGNANLERVAEELNSIAGHLEEHAPAVAERLIDMWNGEGVTRHDPVTGPENALAPPVVLEGLSDGSVRGTVTLTIPYQGPPGHVHGGVSALLLDHVLGVANAWGGKAGMTAQLSTRYHRPTPLFEPLTLTGKLMSVDGRKITTAGDIRTADGQVCVSVEGLFVDKTVPRPR	soluble
VTVRMDPQRFDELVSDALDLIPPELADAMDNVVVLVANRHPQHENLLGQYEGVALTERGSDYAGSLPDAITIYREALLDACDSEDEVVDQVAITVIHEVAHHFGIDDERLDQLGWRDEPAPGRGNPDLSAPDAMNGP	soluble
VVGHIVNDLQRRKVGDQEVVKFRVASNSRRRTSDGGWEPGNSLFITVNCWGRLVTGVGAALGKGAPVIVVGHVYTSEYEDRDGIRRSSLEMRATSVGPDLSRVIVRIEKPAYTGPSAGDLPAATGTGAAGAADAPASAADSVSDVVVDDAITGHNPLPISA	not soluble
WGYEAVGRFTSWEQIATYPIDNDRKGNKTVVPGDIMYKDVNGDGVINYMDERPIGYRSDSTPTLNFGINLSASWKGFDLAMDWTGSGMTSWQQQYETARPFQNDGNSPEEVFKDAWHLADIWDADSQLIPGKYPLIRLNNEETSAYDKSTFWLHNVKYIKLRNLEFGYTLPKRIVAKAGISNLRLYVSGTNLFSISNIPFMDPECIDSNGLDYPTMRVVNLGINLKF	not soluble
WILASTTEGAPSVAPLNVTVFLNESSDNVDIRWMKPPTKQQDGELVGYRISHVWQSAGISKELLEEVGQNGSRARISVQVHNATCTVRIAAVTRGGVGPFSDPVKIFIPAH	soluble
WKQKVGYPTNQTWGYIAEGLFVDDNEVANSPVQFGEYGAGDIKYRDVNKDGKITDLDQVPIGYPKEPEIVYGFGASYGYKNWDISVFFQGLARESFWIDYNNVSPYFNTVDTKVVGNRVGHNALAKFIADSHWSEDNRDAYAVWPRLSPTSIENNSKTSTWFMRDGSFLRLKQLEIGYTIPEKVTNKVGIKNLRFYVTGNNLLCFSKFKLWDPEMAGAGLGYPVQRVYNVGLNLTF	not soluble
WLFFRYMAIGGYVGAATVGAAAW	soluble
WLSGYAGPADGTQQPDAPEHAVAREALVDLCRRRHFLSGTPQQLSTAALLSGCHARFGPLGVELRKNLASQWWSSMVVFREQVFAVDSLHQEPGSSQPRDSAFRLVSPESIREILQDREPSKEQLVAFLENLLKTSGKLRATLLHGALEHYVNCLDLVNRKLPFGLAQIGVCFHPVSNSNQTPSSVTRVGEKTEASLVWFTPTRTSSQWLDFWLRHRLLWWRKFAMSPSNFSSADCQDELGRKGSKLYYSFPWGKEPIETLWNLGDQELLHTYPGNVSTIQGRDGRKNVVPCVLSVSGDVDLGTLAYLYDSFQLAENSFARKKSLQRKVLKLHPCLAPIKVALDVGKGPTVELRQVCQGLLNELLENGISVWPGYSETVHSSLEQLHSKYDEMSVLFSVLVTETTLENGLIQLRSRDTTMKEMMHISKLRDFLVKYLASASNVAAALDHHHHHH	soluble
WNHDEEARGSVRWRTLFDTALTSENVILYAQSVHSISDATHKKALHEELTCRIRDPENGIVKASRFISAIRQVGYEAQMDRAVLHKFLKDFKENFDSSKNYALNLNVTPFSSREYFKWFRDELLQLSREQRKCLNFEFVEAQFVRHLDFMRPVAKMLAGLGCHLMVGQAGRTIVSTHYLKEVDIRYLKLHRSLVAKIDQRHENQLFVRSMLGAAANSKTKIIAVGIENQQELNTLLELGVYGGQGRYFSAE	not soluble
WSGVMEWQEPRPEPNSRSKRWLPSHVYVNQGEILRTEQWPRKLYMQLIPQQLLTTLVPLFRNSRLVQFHFTKDLETLKSLCRIMDNGFAGCVHFSYKASCEIRVLMLLYSSEKKIFIGLIPHDQGNFVNGIRRVIANQQQVLQRNLEQEQQQRGMGG	not soluble
WSNNYAVDCPQHCDSSECKSSPRCERTVLDDCGCCRVCAAGRGETCYRTVSGMDGMKCGPGLRCQPSNGEDPFGEEFGICKDCPYGTFGMDCRETCNCQSGICDRGTGKCLKFPFFQYSVTKSSNRFVSLTEHDMASGDGNIVREEVVKENAAGSPVMRKWLNPR	soluble
YEQKIRLENRSVAGKWALSQKGFDGKKLMRAYDSPEAAAAALKMQKLTEQYRIDSTPTVIVGGKYRVIFNNGFDGGVHTIKELVAKVREERKRQTPAVQK	not soluble
